The values that follow come from paper doi:10.1101/2022.01.10.475532.

The target in assay [1] is prefusion-stabilized S protein of SARS-CoV-2 Delta (B.1.617.2) variant (S trimer) (SARS-CoV-2). Description: BLI. (In BLI a coated tip is dipped into the sample, and binding shifts an interference pattern.)
Assay [2] has as its target prefusion-stabilized S protein of SARS-CoV-2 G614 variant (S trimer) (SARS-CoV-2). The experiment in a line: BLI.

human ACE2 peptidase domain (PD), sequence (Q9BYF1 18-615): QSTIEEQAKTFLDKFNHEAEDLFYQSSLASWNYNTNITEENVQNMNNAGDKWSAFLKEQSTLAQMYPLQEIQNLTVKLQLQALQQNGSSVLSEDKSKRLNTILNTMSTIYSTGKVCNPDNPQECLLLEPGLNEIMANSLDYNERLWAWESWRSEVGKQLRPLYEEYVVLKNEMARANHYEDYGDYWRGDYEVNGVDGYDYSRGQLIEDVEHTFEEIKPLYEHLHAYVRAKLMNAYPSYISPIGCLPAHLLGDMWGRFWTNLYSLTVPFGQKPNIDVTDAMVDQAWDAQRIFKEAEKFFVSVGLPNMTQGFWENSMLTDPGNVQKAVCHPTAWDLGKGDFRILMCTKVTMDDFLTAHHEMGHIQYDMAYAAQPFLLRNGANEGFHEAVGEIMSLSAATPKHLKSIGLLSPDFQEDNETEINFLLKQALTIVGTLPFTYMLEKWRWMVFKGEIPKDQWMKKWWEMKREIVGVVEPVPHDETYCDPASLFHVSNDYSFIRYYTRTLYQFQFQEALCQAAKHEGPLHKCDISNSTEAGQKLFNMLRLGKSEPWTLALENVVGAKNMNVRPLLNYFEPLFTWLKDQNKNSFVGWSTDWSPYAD

As usually defined, the Kd is the equilibrium constant for the complex coming apart. Lower therefore signals a tighter complex. With “human ACE2 peptidase domain (PD) (from UniProt Q9BYF1 18-615) (domain or fragment)”, the results for the Kd in assay [1] and in assay [2] were 88 nM and 237 nM, respectively.
